Measured values as given in the supplement of paper PMC9170038.

Tested on: K4 kissing-loop RNA reporter
Experiment: apparent KD of K4 kissing-loop reporter; higher = weaker reporter binding
Conditions: Eterna round: R107; input ligand: none
Description: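 RNA-MaP round R107: designed RNA switches with theophylline, tryptophan, arginine or FMN aptamers are transcribed on-chip within common flanks. They are titrated with a labelled K4 kissing-loop RNA reporter in RNA-MaP buffer (100 mM Tris pH 7.5, 80 mM KCl, 4 mM MgCl2), without ligand or with the indicated ligand. Median apparent KD per design.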
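Note: bound reporter read as fluorescence of individual clusters on recovered sequencing chips by microscopy, with normalized cluster intensities fitted with a binding model.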

Sequence | apparent KD of K4 kissing-loop reporter [µM]
AGACUACCACACUGUCAAUAGACAGUGGACUAGGAUAUGCUGAUAAGCAGAAGGAGUGAUGUUCCCAGGUAGUCAAUAAAAUAAU [FmnAX 13 G28+C66] | 0.225
ACACUUUACGUAGGAUAUGCGACGAGUGAUGUUCGUCAGGCGGCUUUAGAUUAUACAAGCCGCCUAGCAGAAGGACGGGCAGUGU [Araar] | 0.172
AGAGUUAAUUAGUCUUUUUUCACAUUAAGUCAGGAUAUCGUAUUUUCGAGAAGGGACACAUGCUAGUGAUGUUAGCUAUUUCUCA [JR_Nu3_ExcFMNA_Sub020] | 0.0675
ACGCGCGCGAGUGAUGUUCGGAGCGGCUGGCAGGAUAUGUAGCAAUGCAGAAGGGUCGUGGCGGUGGGCGCGCAAGCGGCUGCCG [#2 Exclusion - FMN A Attempt #12 (HarryS)] | 0.396
AGGUUUUGCGGAGGAUAUGCACUGAGGAGGAGAAUAUAGUGAUGUUAUAUAAGAGGAAGGAGAAGAGUAGAAGGCCGUGAGGUUU [SSFMNB.N] | 0.115
ACGAAUCCAGCGGCCGCCACUAUUCGAUGAGUGAUGUUUAGGAGUAGAUCAUACCGCCGUGGUAAUAGGACCGGGCUCUUUGUAG [theeternabot_exclusion_KL_Trp_B_36] | 0.201
CAUCACGCAAUCACGGAUGCAAGCAUUGAUACCAGAACCGAUUAUUUCCCUUGGCAGCAACACGGAGUGAUGUUCCUAGCAUAUA [theeternabot_sameState_KL_Theo_A_21] | 0.094
AGGAGCGUGCGAUGAAAAUCGCACGCUCCUCGAGGACCGGUACGGCCGCCACUCGCUCGCGCCGAGUGAUGUUCGGCCGGCGAAC [#2 Same State - Tryptophan A Attempt #8 (HarryS)] | 0.234
UUAGCUCUAUAGAGCAAGAGGUAUACUGAUACCAGAGGCUAUAGCCUCCCUUGGCAGCGGAACGAGUGAUGUUCGAAACCUCAUU [AK5 SS Theophylline A] | 0.94
CCUAUCUCAUACGAUACCAGUCAAUGAUAUUUUAUCAAUGCCAUCACCGAGUGAUGUUCGGACCCUUGGCAGCGUAUGGGAUAGG [whbob_Ex_Theo_B_sa101] | 0.253
CUCGUGGGUUUGAGAGGGCUUGUGGGAAGUAAGGAUAUUUAGGGAGGAAGAAGGUACUAUAGAAUAUAGUGAUGUUAUAUAUGGG [SSFMNA.Y] | 0.289
GCCGUACGCAUGGAUACCAGCAAUCAAACGUCAUGCGAAGUGAUGUUUCGCUUACGGUAGUGCCCUUGGCAGCCAUGCGUACGGC | 0.123
AUUAAUAACAGAGGAUAUGCAUUAUUAUUAUUUUUAAAUAAUAAAUGCAGUGAUGUUGCAUAUUAAGCAGAAGGCUGAUUUAUUU [JR_SSFMNB_Sub011] | 0.484
AAAGGAUCAGAGAGUGAUGUUCUCUAAUAACGAGGACCGGUACGGCCGCCACUCGAAGAUCCAAAAGUCCUACGAAAAGUAGGAC [Omei inspired 7] | 0.0837
AUUCGUUUAUGUGAUACCAGACUUUGCAGUGAUGUUGCAUUAAUUAAAGAUGUUUAGUUUGUCCCUUGGCAGCACUAUUUAUUUA [JR_SSTheophyB_Sub002] | 0.0496
UGGAUAUAGUGAUGUUAUAUAGAGAUGGAUACCAGCAGAGAGAAUUGCCCUUGGCAGCCGAAAGAAGUAUCAUUAGAGAAGAAUG [ExTheophyl.Ai] | 0.253
AGUGACGUCGCGGCCGCCACUGAAAUGACAGUGAUGUUGUCAAAAGAAAGUGAUGUUAAGAAAUGCAGGACCGGGUGAUAGAAAA [semi-accidental] | 0.158
UGUUUUUACUGAAGGAGCGGCAAUUGAUACGUAGAUAUAGUGAUGUUAUAUAAGAUAGAGAGCCAGGUAGGUCGCAGAUUUUUUC [ExArgB.Y] | 0.164
UUUGGAUUGCGCUAAGAGUGCAAGCGCCAACGAGGACCGGUACGGCCGCCACUCGCGGAGGAGUCCAGUGAUGUUGGACGGCCCG [Orbile] | 0.601
GGUGUUGUUUGUGCUGUUUUCCUCGUUUCUCGAGGACCGGUACGGCCGCCACUCGAGUGAUGUUUGGGUAGCGAUCUUUGUUAGU [Bdazzled - #5 Exc. Tryptophan A] | 0.177
CGAUAUAAGAAUAUAUAUCUCUAUUCAGAAGGAGCGUGUUUGUACACAGGUAGGUCGCUGAAAUUUAAACUAGUGAUGUUAGACU [JR_SSArginiA_Sub002] | 1.21

Same assay, conditions: Eterna round: R107; input ligand: theophylline 20 uM

Sequence | apparent KD of K4 kissing-loop reporter [µM]
UGUACCGAGUCAGGAUAUACCGUCGAAAGACGAAAUGGAGUGAUGUUCCUUAAACUGCGAAAGCAGGUAGAAGGGACUUGGUACU [FmnBS 30 #SwitchBubble #StaticStem #DoubleMagnetSystem] | 0.263
GGGUAUUACGGAGGAUAUGCACUGAGGAGGAGAAUAUAGUGAUGUUAUAUAAGAGGAAGGAGAAGAGUAGAAGGCCGUGGUGUUU [SSFMNB.J] | 0.195
GUCCCAGUGAUGUUGGUAGGCGGGCGGGAUACCAGCGAAGACUCACGCCCUUGGCAGCCCACAUAUCCCGCGUAGGGAUUAGCCC [Same State - Theophylline A (Freestyle 22)] | 0.638
AAAUAGCAGCAACGAGUGAUGUUCGACGAUACCAGCCUCGAUAGAGGCCCUUGGCAGCGUAAAUGAUCACAAAGCCAAGGGCUGC [#SwitchBubble 2] | 0.453
GGAUCCACCAGUGAUGUUGGAGAAAACUCCAAGGAUAUGACGAAAGUCAGAAGGUGGUAAUAAGACGUCAAAGACGUCGGAUCCA [FmnA 19 #SwitchBubble #K4Early] | 0.323
CGCAGUGAUGUUGCUUAUAUUCUUGGUUAACGAGGACCGGUACGGCCGCCACUCGAUUUCUAUCUAUUCCAGUGUUAAUUUGAGU [JR_ExcTryptoA_Sub005] | 0.568
GAGGAUUGAACGGCCGCCACUGCGCGCAGCUGCAAUCGAGUGAUGUUCCAUCAGUUGUCCAGUUCCAGGACCGGGUUCCGAUGCC [theeternabot_exclusion_KL_Trp_B_12] | 0.535
AUUUAUGUUUCGGCCGCCACUCCACGUACUCAGAGAGAGUGAUGUUCUUUUUAUUAACGUCUAUGGAGGACCGGGAAGAGGUGAG [theeternabot_exclusion_KL_Trp_B_37] | 0.931
UUUUAUUAGUAGUGAUGUUACUAAACUGAAGGAGCGAGAUUUAACUCAGGUAGGUCGCAGAAAAUCAAUUAAUUUAUAAAUUAAA [JR_SSArginiA_Sub011] | 0.0872
UAAAUUAUCUGAAGGAGCGUGAAAUAAUAUUAAACAUAACAACCCAGUGAUGUUGGGUUAUCACAGGUAGGUCGCAGAUGUAGAU [Same State Arginie B GF 24] | 0.118
AGAACUGUCUGAGAUACCAGCCAAGGAGUGAUGUUCCGGCUCGACGAAACGUCGAGCCAUGGCCCUUGGCAGCUCAGACAGUUCA [Omei KL Theo B SS A v2] | 0.191
UUAUAUUUUAUAUUUAGUAGAGCUCUAGCUCGAGGACCGGUACGGCCGCCACUCGAGUGAUGUUCGAGUGGAAGAGCUCUACAUU [AK3.1 EXC Tryptophan A] | 0.0982
UCUGUUGUAUAUGAUACCAGCAGUGAGAGAUGAGAAGUAUAGUGAUGUUAUAUGAGUGAAUGCCCUUGGCAGCGUGUGCGUGUGG [SSTheophylB.aD] | 0.134
UGUAUGUGAUUUGAUACCAGACCAGCUGGUGGUACCUGAGUGAUGUUCGGGAUGGUUUGGGUCCCUUGGCAGCAAAUCGCAUACU [KL-SSTheoB20] | 0.148
AACGACUGGAUGAAUAACAUCUAGUCGAUUCGAGGACCGGUACGGCCGCCACUCGAGCUAACUGCGAGUGAUGUUCGAUAAUAAA [#OpenEnded 3] | 0.524
UUUAAACAUAGUGAUGUUAUGUAACAAUGACGAGGACCGGUACGGCCGCCACUCGAGAGAGAUAAUGAUAAAAUAAAUAAUUUUC [#09 K4 Tryptophan A Same State] | 0.115

Sequence | apparent KD of K4 kissing-loop reporter [µM]
GGUGUUGUUUGUGCUGUUUUCUUCGUUUCUCGAGGACCGGUACGGCCGCCACUCGAGUGAUGUUUGGGUAGCGAUGUUUGUUAGU [Bdazzled - #3 - Exc. Tryptophan A] | 0.36
GGCAGUGAUGUUGCCAGUGGCAGAUGCGAAGGAGCGCGGUGAGACGCAGGUAGGUCGCGCAUUGAAAUUGCUGUCACUAGAAUGC [whbob_Ex_Arginine_A_2t127] | 0.305
UGAUACCAGACUGAUACCAGCCACAGAGUCAAAGACUCUGAAAGGGAAACCAGUGAUGUUGGCCCUUGGCAGCAGUCUGGUAUCU [TheoBX 23 #SwitchBubble #StaticStem] | 0.382
UACUAUAGUGAUGUUAUAGAUAAACCAGAUACCAGUGUAACAUAACACCCUUGGCAGCUGAUAAGGGAAAGUAUAAAUGUGUAUU [AstrosSSTHe-A#3newdesignED] | 0.219
UGGUUAAGCAGUGAUGUUGCAAGUGAUGAUACCAGUUAAGAAGAGAACCCUUGGCAGCAUAAAGUGCGCUCUGAUGAGUGUGCUU [whbob_SS_Theo_A_w55] | 0.176
AGACUACCACACUGUCAAUAGACAGUGGACUAGGAUAUGCUGAUAAGCAGAAGGAGUGAUGUUCCCAGGUAGUCAAUAAAAUAAU [FmnAX 13 G28+C66] | 0.322
ACACUUUACGUAGGAUAUGCGACGAGUGAUGUUCGUCAGGCGGCUUUAGAUUAUACAAGCCGCCUAGCAGAAGGACGGGCAGUGU [Araar] | 0.158
AGAGUUAAUUAGUCUUUUUUCACAUUAAGUCAGGAUAUCGUAUUUUCGAGAAGGGACACAUGCUAGUGAUGUUAGCUAUUUCUCA [JR_Nu3_ExcFMNA_Sub020] | 0.114
ACGCGCGCGAGUGAUGUUCGGAGCGGCUGGCAGGAUAUGUAGCAAUGCAGAAGGGUCGUGGCGGUGGGCGCGCAAGCGGCUGCCG [#2 Exclusion - FMN A Attempt #12 (HarryS)] | 0.399
AGGUUUUGCGGAGGAUAUGCACUGAGGAGGAGAAUAUAGUGAUGUUAUAUAAGAGGAAGGAGAAGAGUAGAAGGCCGUGAGGUUU [SSFMNB.N] | 0.124
ACGAAUCCAGCGGCCGCCACUAUUCGAUGAGUGAUGUUUAGGAGUAGAUCAUACCGCCGUGGUAAUAGGACCGGGCUCUUUGUAG [theeternabot_exclusion_KL_Trp_B_36] | 0.193
CAUCACGCAAUCACGGAUGCAAGCAUUGAUACCAGAACCGAUUAUUUCCCUUGGCAGCAACACGGAGUGAUGUUCCUAGCAUAUA [theeternabot_sameState_KL_Theo_A_21] | 0.209
AGGAGCGUGCGAUGAAAAUCGCACGCUCCUCGAGGACCGGUACGGCCGCCACUCGCUCGCGCCGAGUGAUGUUCGGCCGGCGAAC [#2 Same State - Tryptophan A Attempt #8 (HarryS)] | 0.269
UUAGCUCUAUAGAGCAAGAGGUAUACUGAUACCAGAGGCUAUAGCCUCCCUUGGCAGCGGAACGAGUGAUGUUCGAAACCUCAUU [AK5 SS Theophylline A] | 0.799
CCUAUCUCAUACGAUACCAGUCAAUGAUAUUUUAUCAAUGCCAUCACCGAGUGAUGUUCGGACCCUUGGCAGCGUAUGGGAUAGG [whbob_Ex_Theo_B_sa101] | 0.417
